In publication PMC7097325:

Biological target: Influenza A nucleoprotein (NP), wild type (Influenza A virus A/WSN/33 (H1N1), UniProt P15682 1-498)
Experiment: EMSA

B1: 24-nt RNA oligomer (ssRNA)
RNA: UUUGUUACACACACACACGCUGUG
Question: Does B1 bind?
Answer: binds
